The source of these data is IntAct's records for PubMed 22632968.

The target in assay [1] is sun2_human SUN2 (UniProt Q9UH99).
Assay [2] has as its target sun1_human SUN1 (UniProt O94901).
Assay [3] has as its target sun2_human SUN2 (UniProt Q9UH99). This is another data set of the same source.
Assay [4] deals with sun1_human SUN1 (UniProt O94901). This is another data set of the same source.
Assay [5] deals with sun2_human SUN2 (UniProt Q9UH99). This is another data set of the same source.
Assay [6] has as its target sun1_human SUN1 (UniProt O94901). This is another data set of the same source.
In assay [7] the target is sun2_human SUN2 (UniProt Q9UH99). The source holds these as a separate data set.

Chain of sun1_human SUN1 (O94901 whole entry): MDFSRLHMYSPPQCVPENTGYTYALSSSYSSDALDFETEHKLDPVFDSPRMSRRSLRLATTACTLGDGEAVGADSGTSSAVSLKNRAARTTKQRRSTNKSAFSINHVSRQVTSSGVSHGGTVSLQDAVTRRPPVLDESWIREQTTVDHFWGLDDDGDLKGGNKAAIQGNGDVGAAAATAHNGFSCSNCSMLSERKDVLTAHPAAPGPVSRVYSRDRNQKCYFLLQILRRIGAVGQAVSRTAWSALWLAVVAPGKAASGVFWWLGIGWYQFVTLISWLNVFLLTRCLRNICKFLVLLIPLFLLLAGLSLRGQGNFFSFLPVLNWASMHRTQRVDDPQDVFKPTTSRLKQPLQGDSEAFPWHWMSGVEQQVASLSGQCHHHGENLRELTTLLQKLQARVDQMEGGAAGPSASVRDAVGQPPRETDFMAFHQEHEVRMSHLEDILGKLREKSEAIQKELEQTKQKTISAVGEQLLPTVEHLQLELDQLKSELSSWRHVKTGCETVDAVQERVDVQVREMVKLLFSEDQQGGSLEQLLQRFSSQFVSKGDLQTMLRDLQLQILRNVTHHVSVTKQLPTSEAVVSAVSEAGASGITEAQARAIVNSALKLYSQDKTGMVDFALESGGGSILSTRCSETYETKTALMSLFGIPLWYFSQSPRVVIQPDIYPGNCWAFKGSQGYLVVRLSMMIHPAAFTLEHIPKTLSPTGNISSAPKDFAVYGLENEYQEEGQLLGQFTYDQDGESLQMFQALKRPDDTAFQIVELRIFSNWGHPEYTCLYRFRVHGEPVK
Chain of sun2_human SUN2 (Q9UH99 whole entry): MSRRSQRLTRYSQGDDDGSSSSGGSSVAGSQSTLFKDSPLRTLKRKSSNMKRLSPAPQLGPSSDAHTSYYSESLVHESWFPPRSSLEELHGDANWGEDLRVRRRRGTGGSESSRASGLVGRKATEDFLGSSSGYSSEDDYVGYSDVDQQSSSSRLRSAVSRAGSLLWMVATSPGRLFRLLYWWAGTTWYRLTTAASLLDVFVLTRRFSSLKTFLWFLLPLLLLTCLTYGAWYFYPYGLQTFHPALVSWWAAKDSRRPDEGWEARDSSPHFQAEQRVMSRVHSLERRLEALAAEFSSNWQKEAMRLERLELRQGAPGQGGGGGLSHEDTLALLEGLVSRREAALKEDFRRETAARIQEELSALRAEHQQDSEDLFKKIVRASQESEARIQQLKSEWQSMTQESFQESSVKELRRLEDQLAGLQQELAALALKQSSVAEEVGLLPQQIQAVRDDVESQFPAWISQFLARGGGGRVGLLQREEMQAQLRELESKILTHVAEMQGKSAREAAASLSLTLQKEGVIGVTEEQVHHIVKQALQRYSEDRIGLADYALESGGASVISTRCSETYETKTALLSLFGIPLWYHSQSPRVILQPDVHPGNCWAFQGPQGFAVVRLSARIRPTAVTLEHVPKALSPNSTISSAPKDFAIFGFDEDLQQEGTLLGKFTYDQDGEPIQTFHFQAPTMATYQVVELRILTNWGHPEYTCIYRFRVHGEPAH

Turning to “Nesprin-1 (Homo sapiens), Q8NF91-1 C8774S”, the “effect of a mutation on the interaction” value was “disrupting interaction strength” in assay [1], “disrupting interaction” in assay [2], “decreasing interaction strength” in assay [3] and “disrupting interaction strength” in assay [4].

Consider Nesprin-2 (Homo sapiens), Q8WXH0 L6876A, for which the “effect of a mutation on the interaction” value in assay [5] was “disrupting interaction strength”. Regarding Nesprin-2 (Homo sapiens), Q8WXH0 P6883A, the “effect of a mutation on the interaction” value in assay [5] is recorded as “disrupting interaction strength”. The same measure, in the same setting: as for Nesprin-2 (Homo sapiens), Q8WXH0 Y6878A, the entry is “disrupting interaction strength”. Turning to “Nesprin-2 (Homo sapiens), Q8WXH0-1 C6862S”, the “effect of a mutation on the interaction” value in assay [6] and in assay [7] was “disrupting interaction strength” throughout.
